Data reported in the supplement of paper PMC9170038.

Tested on: K4 kissing-loop RNA reporter
Assay: apparent KD of K4 kissing-loop reporter; higher = weaker reporter binding
Conditions: Eterna round: R107
Procedure: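 RNA-MaP round R107: designed RNA switches with theophylline, tryptophan, arginine or FMN aptamers are transcribed on-chip within common flanks. They are titrated with a labelled K4 kissing-loop RNA reporter in RNA-MaP buffer (100 mM Tris pH 7.5, 80 mM KCl, 4 mM MgCl2), without ligand or with the indicated ligand. Median apparent KD per design.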

[1] = input ligand: theophylline 20 uM
[2] = input ligand: tryptophan 2.4 mM
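Note: bound reporter read as fluorescence of individual clusters on recovered sequencing chips by microscopy, with normalized cluster intensities fitted with a binding model.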

Sequence | apparent KD of K4 kissing-loop reporter (input ligand: FMN 200 uM) [nM] | apparent KD of K4 kissing-loop reporter (input ligand: arginine 13.2 mM) [nM] | apparent KD of K4 kissing-loop reporter (input ligand: none) [nM] | apparent KD of K4 kissing-loop reporter [1] [nM] | apparent KD of K4 kissing-loop reporter [2] [nM]
UUGGAAAUCAGAAGGAGCGUCUAAAAUGAAGGAACCAGUGAUGUUGGUUUUAUUUAAUGAAGACAGGUAGGUCGCUGAAUUUUUA [Same State Arginie B GF 18] | 91.4 | 101 | 94.4 | 116 | 91.5
GGGCCGCGCGCGGCCGCCACUCAGUGAUGUUGGGUGAGCUUUGCUGUGCGUGCUGUUUCGUGACGGAGGACCGGGCGCGCGGCCU [BDazzled 2] | 129 | 93.6 | 121 | 113 | 215
AGUGAUAUAUGAGGAUAUGGGUUAAUUAGUGAGUGAUUUUUAGUGUUGUUUGAUUAGUGAUGUUAUUUAGAAGGCGUGAGUGAUG [mvvmjmullin] | 123 | 106 | 81.9 | 144 | 79.4
AACUGUCAAGGACAACAUUACUGAGGUGAUACCAGCAUCGAAAGAUGCCCUUGGCAGCACUAACUUGCAGUGAUGUUGCAAGUAA [BrourdMod 2 - Jieux - Exclusion - Theophylline A] | 211 | 173 | 193 | 197 | 206
AGAGUCACAUAAGGAUAUCCCUUGACGGGAACCAAGUGAUGUUUGGUUAGACGACCUCUUAUCACGGGAGAAGGUAUAUUUGUAU [theeternabot_sameState_KL_FMN_B_27] | 724 | 580 | 889 | 676 | 612
UGGAUAUAGUGAUGUUAUAUAGAGAUGGAUACCAGUUGAGAGAAUAGCCCUUGGCAGCCGAAAGAAGUAUCAUUAGAGAAGAAUG [ExTheophyl.Ak] | 269 | 200 | 230 | 219 | 173
UUUUACGAGUGAUGUUCGUAUUGUAAUAGUUAGGAUAUCGUUUUUUCGAGAAGGAACUUCGAAGUGAUACGAAAGUAUCGCUUCG [FMN A 10] | 138 | 142 | 154 | 143 | 130
AGGUCCGAGCCCGCAAGGGCUCGGACCUGUUAGGAUAUGACGUUAUUCAGAAGGGAUGGGUGGAGUGAUGUUCCACCCGCGAGGG [#2 Same State - FMN A Attempt #12 (HarryS)] | 132 | 131 | 202 |  | 149
CAUACGCAUGGAGGAUAUGAGAUUUUUCAUAUUACUUUUUAUUCUCAGUGAUGUUGGGAUUUGUAAUCAGAAGGCCAUGUGUAUG [#10 K4 FMN B Exclusion] | 174 | 93.2 | 99.8 | 110 | 98.1
AAGUGAUGUUGUAGUGAUGUUGUGAUGUUGCAGGAUAUAUAGUGAUGUAGAAGGGUAUGUACUUAUUUUUUUUUUGAGUUUUGUU [xgghzrmullin] | 82 | 32.3 | 60.2 | 47.1 | 68.3
UUAGGAGUGGGAGGAUAUCCUGGUGUGGGUGAUGUUAGUGAUGUUGAAAGUGUAGUGAUGUUGUGCGGAGAAGGUCCAGUGUUGA [BDazzled - #10 - Exc. FMN B] | 504 | 295 | 459 | 646 | 292
UGGAGUUGACGAAAAGUCAACUCCGGAGAAGGAGCGGACGAAAGUCCAGGUAGGUCGCUCCCUACCAGUGAUGUUGGUACUGAAA | 244 | 241 | 209 | 319 | 181
GGCACUUUUGCUUGGAACCGUCAAGCUCUUUAGGAUAUCUGGAAACAGAGAAGGAAAGACCUACAGAGUGAUGUUCUGCGUGCCU | 332 | 133 | 273 | 183 | 144
AGACUACUGAUAGGAUAUAACAUACUACUCGUAUACCGAAAGGUAUACGAGACCCUUCUAGUGAUGUUAGAAGGGUCGGUAGUCA [Omei KL FMN B Exc B v8] | 87.5 | 70.1 | 68.1 | 68.6 | 74.7
AUUUUGGUUUAGAGUGAUGUUCCUUGUAUUCGAGGACCGGUACGGCCGCCACUCGAAUAGAAAAGAAAAGAAAUGUUUGAUUUUU [BDazzled - #7 SS Tryptophan A] | 406 | 211 | 556 | 351 | 361
AUUUUUUUGUCAGGAUAUUAGUGUGCGUUUGGUUUGUUAGUGAUGUUGAUAUUUUGUUUAUGUAUUUAAGAAGGGAUUUAGCGGU [aaeatemullin] | 534 | 436 | 501 | 504 | 349

Sequence | apparent KD of K4 kissing-loop reporter (input ligand: FMN 200 uM) [nM] | apparent KD of K4 kissing-loop reporter (input ligand: arginine 13.2 mM) [nM] | apparent KD of K4 kissing-loop reporter (input ligand: none) [nM] | apparent KD of K4 kissing-loop reporter [1] [nM] | apparent KD of K4 kissing-loop reporter [2] [nM]
GUGAAGGAGCAGCAGUGAUGUUGCUGAGACUAGGAUAUCAGGAAACUGAGAAGGAGUCAACUCCUUCACCUAGACUGCAACAUAA [KL-SSFMN-A13] | 173 | 167 | 180 | 249 | 152
AGGCGGCAAGAUUGAUUGGAAAGUAAUCGACGAGGACCGGUACGGCCGCCACUCGAACACCAGUGAUGUUGGUCUGGCUUAAGCC [Exclusion Tryptophan A GF 20] | 430 | 369 | 435 | 477 | 363
UACUAUAGUGAUGUUAUAGAUAAAACAGAUACCAGUGUUACAUAACACCCUUGGCAGCUGAAAAGGGAAAGUAUAAAUGUGUAUU [AstrosSSTHe-A#1newdesignED] | 156 | 127 | 133 | 125 | 129
GGGAACUCUUACGAUACCAGCCGGAGUGAUGUUCCGUGCUUGGACGUAGUAACCCGCACCGGCCCUUGGCAGCGUGGAUCUUGUG [Esgeonin] | 80.6 | 65.5 | 78.1 | 73.2 | 83.5
AACCACUCGUUACAUCACUAUCGAGUGGAACGAGGACCGGUACGGCCGCCACUCGGUAACAAGCAGUGAUGUUGCUUGUAAGAAU [KL-SSTryp-A (BrourdMod)2 #dotplot2 strengthened] | 298 | 252 | 307 | 312 | 164
AUUCGCUCCACUGAUACCAGUCAUCGAGCAAGAUGCUAAGCCAGUGAUGUUGGCAUGAAUGACCCUUGGCAGCAGUACACUAAGG [Theo B SS t7] | 65.4 | 106 | 75.6 | 113 | 60
UUUCGUCUCUGAGGAUAUCAGAAUAGAGUGAUGUUCUAUCAAAGCCCAGUGAUGUUGGAUGCUAUCUGAGAAGGCAGUGGGCGAG [Same State FMN B GF 11] | 196 | 183 | 249 | 185 | 219
UGUCAUUGGUCGGCCGCCACUUCAUAAAGAGUGAUGUUCUAAAAGACGGAUCGAAAGAUCUGUCGAAGGACCGGGACCGAUGACU [TrypBS 18 #SwitchBubble #StaticStem] | 1410 | 641 | 1200 | 915 | 279
UGGCGAGUGAUGUUCGUUGUUGUAGUGUGUCGAGGACCGGUACGGCCGCCACUCGAGUUGGUUGUUGUUGUUGCUGUUGUUGCUG [#03 K4 Tryptophan A Same State] | 196 | 158 | 181 | 157 | 99
GUUACGCAUGGAAGGAGCGCUCUCCGGUUGAUUGACACAGUGAUGUUGUGAUUCUACCGUAAGCAGGUAGGUCGCCAUGUGUAAC [Ex Arginine B K4 13] | 950 | 809 | 1210 | 1050 | 921
UGCACGUAGUGAUGUUACAGCAAGUUUAUGAAGGAUAUGAGGUUAGUCAGAAGGUCAGCCGUCUCGUUGUAAGCACCUUAUCAUU [theeternabot_exclusion_KL_FMN_A_14] | 305 | 144 | 232 | 158 | 155
AUUUUUUUGUCAGGAUAUUAGUGUUGGUUUGGUUUGUUAGUGAUGUUGAUAUUUGUUUUAUGUAUUUAAGAAGGGAUUUAGCGGU [wxooemullin] | 420 | 379 | 364 | 458 | 293
CGCAAUCGAACUGAUACCAGUCAUAAUGGCUGAGAAGCACGAGUGAUGUUCGUAACGAAUGACCCUUGGCAGCAGUUCGAUUGCG [Theo B SS t8] | 706 | 807 | 944 | 330 | 839
UUGUUUGGUUGAGAGGUUGGGCGAGAUGAUACCAGUAUAGUAUUGUACCCUUGGCAGCAUAGGAGAGAUAUAGUGAUGUUGUAUG [SSTheophA.W] | 419 | 320 | 457 | 416 | 328
AGUGAUGUGGGAAGGAGCGGUAUAAGAAUUCAGUGAUGUUGAAGUGUUGCAGAAAUAAAAGGCCAGGUAGGUCGCCUAGAUGUUA [KL-XARG B29] | 347 | 384 | 454 | 519 | 243
CUUAAGAUAUGAGUGAUGUUUAUGUCCGAAGGAGCGUGCGAAAGUACAGGUAGGUCGCGGAUGUGAGUGAUGUUUAUGUAAGCGA [KL-XArg-A14 #analogue] | 121 | 37.1 | 120 | 75 | 103
